This assay addresses Thermotoga maritima SecYEG complex, Se-Met derivatized (Thermotoga maritima) (UniProt Q9X1I9). Put plainly: crystal structure.

Thermotoga maritima SecYEG complex, Se-Met derivatized (Thermotoga maritima), sequence (Q9X1I9 whole entry, chain 1 of 3): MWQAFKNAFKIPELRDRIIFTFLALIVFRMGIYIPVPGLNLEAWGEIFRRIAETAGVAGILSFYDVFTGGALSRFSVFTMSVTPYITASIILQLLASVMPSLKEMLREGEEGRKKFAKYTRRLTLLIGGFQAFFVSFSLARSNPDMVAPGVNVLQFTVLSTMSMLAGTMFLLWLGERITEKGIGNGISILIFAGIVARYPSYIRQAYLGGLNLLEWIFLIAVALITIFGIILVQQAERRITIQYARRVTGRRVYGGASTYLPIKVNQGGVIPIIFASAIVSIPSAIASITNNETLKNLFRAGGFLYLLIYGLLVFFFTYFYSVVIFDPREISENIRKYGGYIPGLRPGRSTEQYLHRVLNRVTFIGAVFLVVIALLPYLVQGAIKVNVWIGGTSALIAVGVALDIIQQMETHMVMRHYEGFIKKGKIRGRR
Thermotoga maritima SecYEG complex, Se-Met derivatized (Thermotoga maritima), sequence (P35874 whole entry, chain 2 of 3, further chain): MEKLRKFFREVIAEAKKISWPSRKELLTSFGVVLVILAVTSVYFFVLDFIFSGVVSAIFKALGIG
Thermotoga maritima SecYEG complex, Se-Met derivatized (Thermotoga maritima), sequence (Q9WYU9 whole entry, chain 3 of 3, further chain): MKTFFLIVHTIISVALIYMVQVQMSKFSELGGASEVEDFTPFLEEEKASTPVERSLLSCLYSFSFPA

Consider “Thermotoga maritima SecA (from UniProt Q9X1R4 1-871) (enzyme)”, for which the stoichiometry N (SecA per SecY complex) worked out at 1.

(Values after publication PMC7164768.)
